Patent publication US20100143440A1, “UL97 INHIBITORS FOR TREATMENT OF PROLIFERATIVE DISORDERS” (The UAB Research Foundation, priority 2007, published 2010)
Where a chain is given by its changes, count along the chain named. Names may count otherwise. Like-named read-outs stand apart in the source and are kept apart here.

Assays:
GS strain of HHV-6A = assay: Efficacy against HHV-6A in HSB-2 cells with reduced serum; format: cell-based; details: for EC50: HSB2, HHV-6A in HSB-2 cells, read-out: EC50
Protocol: The activity of MBV was evaluated against the GS strain of HHV-6A in HSB-2 cells with reduced serum to slow the growth of lymphocytes.

[1] = target: RB tumor suppressor (retinoblastoma protein), endogenous in infected human foreskin fibroblast (HFF) cells (UniProt P06400)
[2] = target: T1, RB tumor suppressor (retinoblastoma protein), endogenous in infected human foreskin fibroblast (HFF) cells, P06400
T1 chain: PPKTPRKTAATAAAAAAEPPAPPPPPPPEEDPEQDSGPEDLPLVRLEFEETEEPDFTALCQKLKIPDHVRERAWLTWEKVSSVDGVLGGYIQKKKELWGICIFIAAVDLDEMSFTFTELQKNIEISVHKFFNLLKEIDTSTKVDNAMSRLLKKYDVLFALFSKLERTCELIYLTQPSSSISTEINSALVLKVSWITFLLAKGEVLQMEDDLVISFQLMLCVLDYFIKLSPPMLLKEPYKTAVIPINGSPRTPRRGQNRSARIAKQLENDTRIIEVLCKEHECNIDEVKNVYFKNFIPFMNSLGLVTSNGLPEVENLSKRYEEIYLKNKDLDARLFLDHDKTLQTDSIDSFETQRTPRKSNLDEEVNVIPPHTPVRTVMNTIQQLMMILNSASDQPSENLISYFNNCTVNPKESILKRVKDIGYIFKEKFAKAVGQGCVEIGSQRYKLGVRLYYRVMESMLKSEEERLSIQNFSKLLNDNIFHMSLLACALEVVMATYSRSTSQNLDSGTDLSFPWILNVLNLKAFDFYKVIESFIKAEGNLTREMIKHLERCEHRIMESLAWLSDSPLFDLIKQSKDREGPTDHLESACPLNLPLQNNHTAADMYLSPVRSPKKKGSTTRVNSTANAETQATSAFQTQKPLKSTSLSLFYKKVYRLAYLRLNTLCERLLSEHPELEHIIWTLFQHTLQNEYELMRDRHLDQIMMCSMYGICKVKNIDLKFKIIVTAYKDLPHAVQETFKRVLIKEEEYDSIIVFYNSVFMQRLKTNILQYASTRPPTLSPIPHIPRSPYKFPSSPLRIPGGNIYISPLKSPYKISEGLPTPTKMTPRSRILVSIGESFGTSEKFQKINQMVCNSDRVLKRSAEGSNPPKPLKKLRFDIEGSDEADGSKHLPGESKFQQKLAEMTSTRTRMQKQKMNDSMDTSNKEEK

[3] = target: T2, epitope tagged (V5) UL104 fusion protein (negative control) (UniProt P16735 1-697); assay: pull-down of recombinant Rb by V5-immunoprecipitated protein on Protein A sepharose beads, immunoblot for Rb
T2 construct: Negative control in the Rb pull-down; also called pUL104
T2 sequence: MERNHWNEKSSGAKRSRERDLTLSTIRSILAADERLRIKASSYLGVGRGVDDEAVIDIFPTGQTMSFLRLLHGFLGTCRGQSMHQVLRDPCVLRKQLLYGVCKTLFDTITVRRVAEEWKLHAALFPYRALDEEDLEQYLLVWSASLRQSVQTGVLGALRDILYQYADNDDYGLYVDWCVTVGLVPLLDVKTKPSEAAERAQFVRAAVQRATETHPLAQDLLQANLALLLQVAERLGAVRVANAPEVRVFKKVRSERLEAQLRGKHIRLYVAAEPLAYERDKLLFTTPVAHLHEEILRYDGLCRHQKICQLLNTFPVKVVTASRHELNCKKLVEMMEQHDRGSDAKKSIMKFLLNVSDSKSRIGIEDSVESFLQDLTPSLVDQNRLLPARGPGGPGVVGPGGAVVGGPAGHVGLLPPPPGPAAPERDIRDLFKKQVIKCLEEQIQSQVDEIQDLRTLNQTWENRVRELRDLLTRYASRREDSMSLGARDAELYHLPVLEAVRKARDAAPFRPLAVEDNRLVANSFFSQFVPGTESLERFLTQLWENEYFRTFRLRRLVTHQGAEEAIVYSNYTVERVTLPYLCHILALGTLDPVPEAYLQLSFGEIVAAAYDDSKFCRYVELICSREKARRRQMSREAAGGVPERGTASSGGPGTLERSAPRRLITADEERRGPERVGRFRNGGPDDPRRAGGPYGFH

[4] = target: T3, epitope tagged (V5) UL89 fusion protein (negative control) (UniProt P16732 1-674); assay: as above
T3 construct: Negative control in the Rb pull-down; also called pUL89
T3 sequence: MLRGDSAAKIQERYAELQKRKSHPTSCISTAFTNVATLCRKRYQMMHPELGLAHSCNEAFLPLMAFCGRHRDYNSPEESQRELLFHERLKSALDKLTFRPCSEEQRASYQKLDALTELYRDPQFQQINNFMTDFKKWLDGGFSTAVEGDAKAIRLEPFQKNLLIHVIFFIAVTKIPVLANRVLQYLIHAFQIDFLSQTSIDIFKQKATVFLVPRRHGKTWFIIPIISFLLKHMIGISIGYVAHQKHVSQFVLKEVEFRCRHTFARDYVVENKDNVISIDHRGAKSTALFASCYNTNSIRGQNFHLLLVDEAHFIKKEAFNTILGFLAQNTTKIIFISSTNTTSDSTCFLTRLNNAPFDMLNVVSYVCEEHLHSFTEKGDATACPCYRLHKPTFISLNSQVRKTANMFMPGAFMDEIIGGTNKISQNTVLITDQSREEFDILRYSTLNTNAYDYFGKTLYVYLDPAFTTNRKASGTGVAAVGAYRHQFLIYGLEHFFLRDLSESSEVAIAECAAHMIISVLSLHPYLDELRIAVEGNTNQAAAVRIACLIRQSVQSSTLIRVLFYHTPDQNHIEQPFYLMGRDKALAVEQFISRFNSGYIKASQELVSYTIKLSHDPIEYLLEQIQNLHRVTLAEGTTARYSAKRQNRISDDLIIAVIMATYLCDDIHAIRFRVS

## Nc1ccn(C[C@@H](CO)OCP(=O)(O)O)c(=O)n1 [cidofovir]
GS strain of HHV-6A; GS strain of HHV-6A, HSB-2 cells, reduced serum
  EC50 values under conditions of reduced serum: unaffected
GS strain of HHV-6A; 2% FBS
  EC50: 1100 nM
GS strain of HHV-6A; 5% FBS
  EC50: 1200 nM
GS strain of HHV-6A; 10% FBS
  EC50: 1400 nM

## pUL97 K355M of recombinant virus RC314
[1]
  RB stabilization, western blot of lysates 24 hours after infection: This did not occur when cells were infected with the K355M mutant
  phosphorylation of RB on serine 780, western blot with specific antisera: The phosphorylation of serine 780 was reduced in the K355M and C151G mutants relative to the wild-type virus and resembled levels seen in uninfected cells

B1: pUL97 of the wild-type virus HB5 (HCMV BAC strain) (protein)
chain: MSSALRSRARSASLGTTTQGWDPPPLRRPSRARRRQWMREAAQAAAQAAVQAAQAAAAQVAQAHVDENEVVDLMADEAGGGVTTLTTLSSVSTTTVLGHATFSACVRSDVMRDGEKEDAASDKENLRRPVVPSTSSRGSAASGDGYHGLRCRETSAMWSFEYDRDGDVTSVRRALFTGGSDPSDSVSGVRGGRKRPLRPPLVSLARTPLCRRRVGGVDAVLEENDVELRAESQDSAVASGPGRIPQPLSGSSGEESATAVEADSTSHDDVHCTCSNDQIITTSIRGLTCDPRMFLRLTHPELCELSISYLLVYVPKEDDFCHKICYAVDMSDESYRLGQGSFGEVWPLDRYRVVKVARKHSETVLTVWMSGLIRTRAAGEQQQPPSLVGTGVHRGLLTATGCCLLHNVTVHRRFHTDMFHHDQWKLACIDSYRRAFCTLADAIKFLNHQCRVCHFDITPMNVLIDVNPHNPSEIVRAALCDYSLSEPYPDYNERCVAVFQETGTARRIPNCSHRLRECYHPAFRPMPLQKLLICDPHARFPVAGLRRYCMSELSALGNVLGFCLMRLLDRRGLDEVRMGTEALLFKHAGAACRALENGKLTHCSDACLLILAAQMSYGACLLGEHGAALVSHTLRFVEAKMSSCRVRAFRRFYHECSQTMLHEYVRKNVERLLATSDGLYLYNAFRRTTSIICEEDLDGDCRQLFPE
[2]
  RB stabilization, western blot of lysates 24 hours after infection: Cells infected with the wild-type virus stabilized RB

B2: pUL97 C151G of recombinant virus RC295 (protein)
chain: B1 chain with C151G
[2]
  RB accumulation, western blot of lysates 24 hours after infection: The accumulation of RB was reduced in the C151G mutant
  phosphorylation of RB on serine 780, western blot with specific antisera: The phosphorylation of serine 780 was reduced in the K355M and C151G mutants relative to the wild-type virus and resembled levels seen in uninfected cells

B3: recombinant protein consisting of the carboxyl terminus of Rb fused to the maltose binding protein (Cell Signaling Technology) (other)
chain: DQIMMCSMYGICKVKNIDLKFKIIVTAYKDLPHAVQETFKRVLIKEEEYDSIIVFYNSVFMQRLKTNILQYASTRPPTLSPIPHIPRSPYKFPSSPLRIPGGNIYISPLKSPYKISEGLPTPTKMTPRSRILVSIGESFGTSEKFQKINQMVCNSDRVLKRSAEGSNPPKPLKKLRFDIEGSDEADGSKHLPGESKFQQKLAEMTSTRTRMQKQKMNDSMDTSNKEEK
notes: domain: carboxyl terminus; Bought fusion protein; also called recombinant Rb; recombinant Rb protein
[3]
  binding result: no binding
[4]
  binding result: no binding
